Test results as given in paper PMC6031081, “A Novel UDP-Glycosyltransferase of Rhodiola crenulata Converts Tyrosol to Specifically Produce Icariside D2” (BioMed Research International, 2018).

Substrate: OCCc1ccc(O)cc1
Test: purified protein
Type: biochemical, Rhodiola crenulata
Details: UDP-glucose co-substrate (2 mM), tyrosol varied 0.5-5 mM, 50 mM Tris-HCl, pH 8.6, 30°C, 30 min

B1: RcUGT1 (Rhodiola crenulata) (protein)
chain: MDSDSRPLRVFFFPFMAHGHLIPMVDIARLFSSQGVHSTIITTPLNANYISKTTSLSIKTLPFQASKVGLPDGCENVDMLPSPDLIFKFFQAANLLQKPFENLLELEKPDCLISDIFFPWSVDSAGKFNIPRLVFHGTSFFAMCAMESLKTHKPYKSVSTDSEPFVIPNLPDEIKMTKSQFTVDAWEDTEKGVGKLLADARASGLRSFGVVVNSFYELEPAYADYYKNVLNMKAWCVGPVSVCYRNDEEKIARGKKSAIDDHECLKWLEGKQPDSVVYVCFGSGASFPDEQLRDIALGLEDSGVNFIWVIRRSSESGSEDYLPEGFEDRVEGSGLVIRGWAPQVLILDHPSVGGFVTHCGWNSALEGISAGLPMVTWPLFAEQFFNQKLITDVLKIGVEVGVQKWSRNGEDRVTKEKVEKAVRAVMVGEVAEERRGRARQLGKLAKNAAAKDGSSFIDLHNLLDELKLRRVPLS
notes: 6xHis tag (pQE30), E. coli M15, Ni-NTA purified; primers encode ends MDSDSRP...RRVPLS
Km: 972.75 ± 104.31 µM
Vmax: 0.0172 µmol/min/mg
kcat: 0.0155 ± 0.00044 s⁻¹
